Assays:
kallikrein 2 (KLK2) = kallikrein 2 (KLK2) (UniProt P20151)
[1] = biological target: recombinant soluble murine proADAM10 (truncated, lacking the signal peptide and the regions C-terminal of the protease domain) (murine); assay: SDS-PAGE with western blot + MALDI-TOF; purified recombinant proADAM10; anti-His-tag western blot and MALDI-TOF; a 100-kDa species called the proADAM10 dimer

Chain of UniProt P20151 (P20151 19-261): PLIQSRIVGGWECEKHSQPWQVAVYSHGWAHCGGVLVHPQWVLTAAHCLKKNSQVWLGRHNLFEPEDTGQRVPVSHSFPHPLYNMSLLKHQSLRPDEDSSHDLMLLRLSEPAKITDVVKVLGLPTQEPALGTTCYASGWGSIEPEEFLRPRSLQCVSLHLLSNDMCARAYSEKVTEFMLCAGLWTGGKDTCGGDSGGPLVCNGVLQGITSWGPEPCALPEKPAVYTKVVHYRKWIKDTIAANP

Substance	KLK2 proteolytic activity (Z-Pyr-G-R-AMC) after incubation with meprin β-cleaved LEKTI 9–15, relative to uncleaved LEKTI 9–15 (kallikrein 2 (KLK2)) [%]	stoichiometry N [1]
meprin β-cleaved LEKTI 9–14 (domain or fragment)	20	
recombinant soluble murine proADAM10 (truncated, lacking the signal peptide and the regions C-terminal of the protease domain) (domain or fragment)		2
